In patent US20240190962A1 (IMMUNOWAKE, published 2024):

Assays:
[1] = biological target: T1, human IL-2 receptor (IL-2Rα, IL-2Rβ, IL-2Rγ) (human, UniProt P01589 22-272; P14784 27-551; P31785 23-369); assay: cell-based or functional assay
T1 sequence (looked up) 1: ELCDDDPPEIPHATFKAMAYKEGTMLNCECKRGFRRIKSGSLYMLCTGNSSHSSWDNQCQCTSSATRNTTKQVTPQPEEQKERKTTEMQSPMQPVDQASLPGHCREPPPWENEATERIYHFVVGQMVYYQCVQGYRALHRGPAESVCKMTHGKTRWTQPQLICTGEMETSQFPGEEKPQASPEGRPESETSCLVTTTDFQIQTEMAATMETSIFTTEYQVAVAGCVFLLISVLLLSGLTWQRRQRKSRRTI
T1 sequence (looked up) 2: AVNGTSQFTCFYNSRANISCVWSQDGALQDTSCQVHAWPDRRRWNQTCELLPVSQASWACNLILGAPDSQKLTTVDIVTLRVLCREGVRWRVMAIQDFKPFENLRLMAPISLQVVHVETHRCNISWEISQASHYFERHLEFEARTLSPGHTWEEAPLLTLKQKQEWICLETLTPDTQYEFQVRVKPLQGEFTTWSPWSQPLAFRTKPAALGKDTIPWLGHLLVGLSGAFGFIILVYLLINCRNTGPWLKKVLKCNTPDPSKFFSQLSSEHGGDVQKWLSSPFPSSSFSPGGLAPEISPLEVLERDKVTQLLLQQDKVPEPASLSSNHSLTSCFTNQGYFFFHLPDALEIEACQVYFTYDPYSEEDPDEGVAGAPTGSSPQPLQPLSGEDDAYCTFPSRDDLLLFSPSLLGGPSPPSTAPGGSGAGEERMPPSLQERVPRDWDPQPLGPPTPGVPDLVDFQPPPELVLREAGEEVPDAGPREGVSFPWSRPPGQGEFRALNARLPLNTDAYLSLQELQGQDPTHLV
T1 sequence (looked up) 3: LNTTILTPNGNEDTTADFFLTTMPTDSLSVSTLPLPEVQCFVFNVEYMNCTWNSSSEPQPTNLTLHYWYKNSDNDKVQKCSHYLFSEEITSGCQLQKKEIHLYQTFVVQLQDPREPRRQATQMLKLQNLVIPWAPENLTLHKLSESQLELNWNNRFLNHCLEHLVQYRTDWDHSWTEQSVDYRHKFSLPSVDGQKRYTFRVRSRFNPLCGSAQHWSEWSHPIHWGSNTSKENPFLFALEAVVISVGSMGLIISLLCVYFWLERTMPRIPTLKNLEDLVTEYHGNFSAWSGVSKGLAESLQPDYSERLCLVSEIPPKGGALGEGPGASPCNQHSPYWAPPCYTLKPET

[2] = biological target: T2, human PD-1 on HEK-PD-1-IL-2 cells (human, UniProt Q15116 25-288); assay: FACS on HEK-PD-1-IL-2 cells
T2 construct: whole, on cells
T2 sequence (Q15116 25-288): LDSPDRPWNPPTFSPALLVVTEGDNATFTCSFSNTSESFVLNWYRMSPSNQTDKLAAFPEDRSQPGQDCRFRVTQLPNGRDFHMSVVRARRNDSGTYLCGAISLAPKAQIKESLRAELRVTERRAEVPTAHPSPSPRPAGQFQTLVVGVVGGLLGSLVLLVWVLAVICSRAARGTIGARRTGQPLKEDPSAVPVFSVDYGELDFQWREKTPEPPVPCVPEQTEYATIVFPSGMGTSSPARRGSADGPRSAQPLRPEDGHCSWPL

B1: ligand-IL-2 mutant-PD-L2-Fc (Fc fusion)
chain 1: LFTVTVPKELYIIEHGSNVTLECNFDTGSHVNLGAITASLQKVENDTSPHRERATLLEEQLPLGKASFHIPQVQVRDEGQYQCIIIYGVAWDYKYLTLKVKASYRKINTHILKVPETDEVELTCQATGYPLAEVSWPNVSVPANTSHSRTPEGLYQVTSVLRLKPPPGRNFSCVFWNTHVRELTLASIDLQSQMEPRTHPTGGGGSAPTSSSTKKTQLQLEHLLLDLQMILNGINNYKNPKLTDMLTFEFYMPKKATELKHLQCLERELKPLEEVLNLAQSKNFHLRPRDLISNINVIVLELKGSETTFMCEYADETATIVEFLNRWITFCQSIISTLTDKTHTCPPCPAPEDEGGPSVFLFPPKPKDTLMISRTPEVTCVVVDVSHEDPEVKFNWYVDGVEVHNAKTKPREEQYNSTYRVVSVLTVLHQDWLNGKEYKCKVSNKALPAPIEKTISKAKGQPREPQVYVYPPSREEMTKNQVSLTCLVKGFYPSDIAVEWESNGQPENNYKTTPPVLDEDGSFALVSKLTVDKSRWQQGNVFSCSVMHEALHNHYTQKSLSLSPGK
chain 2: LFTVTVPKELYIIEHGSNVTLECNFDTGSHVNLGAITASLQKVENDTSPHRERATLLEEQLPLGKASFHIPQVQVRDEGQYQCIIIYGVAWDYKYLTLKVKASYRKINTHILKVPETDEVELTCQATGYPLAEVSWPNVSVPANTSHSRTPEGLYQVTSVLRLKPPPGRNFSCVFWNTHVRELTLASIDLQSQMEPRTHPTGGGGSDKTHTCPPCPAPEKKGGPSVFLFPPKPKDTLMISRTPEVTCVVVDVSHEDPEVKFNWYVDGVEVHNAKTKPREEQYNSTYRVVSVLTVLHQDWLNGKEYKCKVSNKALPAPIEKTISKAKGQPREPQVYVLPPSREEMTKNQVSLLCLVKGFYPSDIAVEWESNGQPENRYMTWPPVLDSDGSFFLYSKLTVDKSRWQQGNVFSCSVMHEALHNHYTQKSLSLSPGK
notes: also called IL-2(R38D/K43E/E61R)/PD-L2-Fc immunocytokine; construct #11
- Percent IL-2 signal transduction (HEK-IL-2 reporter assay) [1]: 2.4%
- Percent IL-2 signal transduction (HEK-PD-1-IL-2 reporter assay) [1]: 43.5%
- binding result [2]: binds
